Measured values from patent US20240116985A1 (published 2024).
Each block holds one binder with its values, some of them ahead of it. Starred links: 1 amine or outer side, 2 acyl side, 3 side chain; linkers in the order of their positions; H or OH if unused. Positions of bridges follow the written chain, without caps; N, C: chain ends. Non-standard residues stand in square brackets, D forms with d. Primed or numbered codes have the meaning given here. PyrS2″ = (S)-3-amino-1-((pent-4-en-1-yloxy)carbonyl)pyrrolidine-3-carboxylic acid (stapling residue), C=CCCCOC(=O)N1CC[C@@](N[*:1])(C(=O)[*:2])C1; B5(4) = 2,2-bis(4-pentenyl)glycine = 2-amino-2-(pent-4-en-1-yl)hept-6-enoic acid (stitching residue), C=CCCCC(CCCC=C)(N[*:1])C(=O)[*:2]; TfeGA = (S)-2-amino-3-((carboxymethyl)(2,2,2-trifluoroethyl)amino)propanoic acid, O=C([C@H](CN(CC(=O)[*:3])CC(F)(F)F)N[*:1])[*:2]; B5(3) = 2,2-bis(4-pentenyl)glycine (stitching residue), C=CCCCC(CCCC=C)(N[*:1])C(=O)[*:2]; Phe(2-Cl) = N[C@@H](Cc1ccccc1Cl)C(=O)O; Bta = N[C@@H](Cc1csc2ccccc12)C(=O)O; αAllylPro = C=CC[C@@]1(C(=O)O)CCCN1; tBuAla = CC(C)(C)C[C@H](N)C(=O)O; Thr(ol) = C[C@@H](O)[C@H](N)CO; Leu(ol) = CC(C)C[C@H](N)CO

Experiments:
beta-catenin [1] = biological target: T1, beta-catenin (Homo sapiens (Human), UniProt P35222 2-781); assay: cell-based or functional assay
T1 sequence: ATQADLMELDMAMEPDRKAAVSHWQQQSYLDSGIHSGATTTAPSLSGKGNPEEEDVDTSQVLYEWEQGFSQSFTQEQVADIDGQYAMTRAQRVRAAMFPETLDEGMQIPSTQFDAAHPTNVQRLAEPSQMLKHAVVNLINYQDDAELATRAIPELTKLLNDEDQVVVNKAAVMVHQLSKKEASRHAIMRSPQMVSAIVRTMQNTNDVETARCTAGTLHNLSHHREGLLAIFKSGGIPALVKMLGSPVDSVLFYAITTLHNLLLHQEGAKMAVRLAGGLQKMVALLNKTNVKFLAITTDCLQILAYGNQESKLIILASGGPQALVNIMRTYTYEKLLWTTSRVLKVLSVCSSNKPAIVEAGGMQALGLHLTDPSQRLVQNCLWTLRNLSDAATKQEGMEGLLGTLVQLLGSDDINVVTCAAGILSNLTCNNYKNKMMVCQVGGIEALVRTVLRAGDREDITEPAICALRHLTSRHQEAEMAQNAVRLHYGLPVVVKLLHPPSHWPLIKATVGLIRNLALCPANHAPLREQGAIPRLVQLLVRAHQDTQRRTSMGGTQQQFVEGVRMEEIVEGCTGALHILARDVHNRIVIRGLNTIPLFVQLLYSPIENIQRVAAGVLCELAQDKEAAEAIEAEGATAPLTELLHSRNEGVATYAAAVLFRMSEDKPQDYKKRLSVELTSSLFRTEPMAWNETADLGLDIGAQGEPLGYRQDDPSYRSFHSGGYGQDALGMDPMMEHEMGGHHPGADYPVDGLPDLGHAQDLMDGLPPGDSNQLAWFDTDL

beta-catenin [2] = biological target: T2, beta-catenin (Homo sapiens (Human), UniProt P35222 1-781); assay: cell-based or functional assay
T2 sequence: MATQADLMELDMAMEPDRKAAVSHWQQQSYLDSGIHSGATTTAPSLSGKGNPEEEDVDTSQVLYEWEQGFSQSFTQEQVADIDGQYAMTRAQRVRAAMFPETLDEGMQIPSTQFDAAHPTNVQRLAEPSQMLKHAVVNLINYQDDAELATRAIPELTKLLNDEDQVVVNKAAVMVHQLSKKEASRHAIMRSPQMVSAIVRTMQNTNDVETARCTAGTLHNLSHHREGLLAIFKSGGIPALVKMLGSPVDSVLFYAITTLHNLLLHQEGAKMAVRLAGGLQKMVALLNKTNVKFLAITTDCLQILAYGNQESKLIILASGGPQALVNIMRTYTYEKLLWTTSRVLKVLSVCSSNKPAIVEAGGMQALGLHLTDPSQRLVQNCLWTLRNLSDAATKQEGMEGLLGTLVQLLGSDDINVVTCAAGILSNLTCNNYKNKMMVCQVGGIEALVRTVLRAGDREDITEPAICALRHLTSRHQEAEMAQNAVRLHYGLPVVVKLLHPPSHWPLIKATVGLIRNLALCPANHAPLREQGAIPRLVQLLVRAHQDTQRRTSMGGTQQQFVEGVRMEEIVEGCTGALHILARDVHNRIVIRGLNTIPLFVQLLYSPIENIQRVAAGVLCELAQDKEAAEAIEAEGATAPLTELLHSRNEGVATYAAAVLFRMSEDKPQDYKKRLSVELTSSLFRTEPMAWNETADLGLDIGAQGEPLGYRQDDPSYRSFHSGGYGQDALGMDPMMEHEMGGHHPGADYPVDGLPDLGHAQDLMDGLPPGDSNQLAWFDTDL

DLD1 TCF c2 BrightGlo % Inhibition (TCF/LEF luciferase reporter; 0.625 uM by plate map, replicate 1) (beta-catenin [1]): 14.1% | DLD1 TCF c2 BrightGlo % Inhibition (TCF/LEF luciferase reporter; 0.625 uM by plate map, replicate 2) (beta-catenin [1]): 17.4% | DLD1 TCF c2 BrightGlo % Inhibition (TCF/LEF luciferase reporter; 0.625 uM by plate map, replicate 3) (beta-catenin [1]): 20.3% | DLD1 TCF c2 BrightGlo % Inhibition (TCF/LEF luciferase reporter; 1.25 uM by plate map, replicate 1) (beta-catenin [1]): 14% | DLD1 TCF c2 BrightGlo % Inhibition (TCF/LEF luciferase reporter; 1.25 uM by plate map, replicate 2) (beta-catenin [1]): 21.5% | DLD1 TCF c2 BrightGlo % Inhibition (TCF/LEF luciferase reporter; 1.25 uM by plate map, replicate 3) (beta-catenin [1]): 24% | DLD1 TCF c2 BrightGlo % Inhibition (TCF/LEF luciferase reporter; 2.5 uM by plate map, replicate 1) (beta-catenin [1]): 17.3% | DLD1 TCF c2 BrightGlo % Inhibition (TCF/LEF luciferase reporter; 2.5 uM by plate map, replicate 2) (beta-catenin [1]): 36.1% | DLD1 TCF c2 BrightGlo % Inhibition (TCF/LEF luciferase reporter; 2.5 uM by plate map, replicate 3) (beta-catenin [1]): 37.9% | DLD1 TCF c2 BrightGlo % Inhibition (TCF/LEF luciferase reporter; 5 uM by plate map, replicate 1) (beta-catenin [1]): 38.5% | DLD1 TCF c2 BrightGlo % Inhibition (TCF/LEF luciferase reporter; 5 uM by plate map, replicate 2) (beta-catenin [1]): 56.2% | DLD1 TCF c2 BrightGlo % Inhibition (TCF/LEF luciferase reporter; 5 uM by plate map, replicate 3) (beta-catenin [1]): 62% | DLD1 TCF c2 BrightGlo % Inhibition (TCF/LEF luciferase reporter; 10 uM by plate map, replicate 1) (beta-catenin [1]): 63.9% | DLD1 TCF c2 BrightGlo % Inhibition (TCF/LEF luciferase reporter; 10 uM by plate map, replicate 2) (beta-catenin [1]): 71% | DLD1 TCF c2 BrightGlo % Inhibition (TCF/LEF luciferase reporter; 10 uM by plate map, replicate 3) (beta-catenin [1]): 75% | DLD1 TCF c2 BrightGlo % Inhibition (TCF/LEF luciferase reporter; 20 uM by plate map, replicate 1) (beta-catenin [1]): 76.5% | DLD1 TCF c2 BrightGlo % Inhibition (TCF/LEF luciferase reporter; 20 uM by plate map, replicate 2) (beta-catenin [1]): 77.1% | DLD1 TCF c2 BrightGlo % Inhibition (TCF/LEF luciferase reporter; 20 uM by plate map, replicate 3) (beta-catenin [1]): 79.9%
B1: I-1082 (peptide)
peptide: Ac-[αAllylPro]D[tBuAla][B5(3)]DDAAFN[PyrS2″][Phe(2-Cl)][Bta][Thr(ol)]
modifications: staple 1-4, 4-11

DLD1 TCF c2 BrightGlo % Inhibition (TCF/LEF luciferase reporter; 0.625 uM by plate map, replicate 1) (beta-catenin [1]): 20.2% | DLD1 TCF c2 BrightGlo % Inhibition (TCF/LEF luciferase reporter; 0.625 uM by plate map, replicate 2) (beta-catenin [1]): 13.7% | DLD1 TCF c2 BrightGlo % Inhibition (TCF/LEF luciferase reporter; 0.625 uM by plate map, replicate 3) (beta-catenin [1]): 15.3% | DLD1 TCF c2 BrightGlo % Inhibition (TCF/LEF luciferase reporter; 1.25 uM by plate map, replicate 1) (beta-catenin [1]): 16% | DLD1 TCF c2 BrightGlo % Inhibition (TCF/LEF luciferase reporter; 1.25 uM by plate map, replicate 2) (beta-catenin [1]): 13.8% | DLD1 TCF c2 BrightGlo % Inhibition (TCF/LEF luciferase reporter; 1.25 uM by plate map, replicate 3) (beta-catenin [1]): 12.3% | DLD1 TCF c2 BrightGlo % Inhibition (TCF/LEF luciferase reporter; 2.5 uM by plate map, replicate 1) (beta-catenin [1]): 14.6% | DLD1 TCF c2 BrightGlo % Inhibition (TCF/LEF luciferase reporter; 2.5 uM by plate map, replicate 2) (beta-catenin [1]): 19.8% | DLD1 TCF c2 BrightGlo % Inhibition (TCF/LEF luciferase reporter; 2.5 uM by plate map, replicate 3) (beta-catenin [1]): 7.9% | DLD1 TCF c2 BrightGlo % Inhibition (TCF/LEF luciferase reporter; 5 uM by plate map, replicate 1) (beta-catenin [1]): 24.9% | DLD1 TCF c2 BrightGlo % Inhibition (TCF/LEF luciferase reporter; 5 uM by plate map, replicate 2) (beta-catenin [1]): 31% | DLD1 TCF c2 BrightGlo % Inhibition (TCF/LEF luciferase reporter; 5 uM by plate map, replicate 3) (beta-catenin [1]): 24.4% | DLD1 TCF c2 BrightGlo % Inhibition (TCF/LEF luciferase reporter; 10 uM by plate map, replicate 1) (beta-catenin [1]): 42.4% | DLD1 TCF c2 BrightGlo % Inhibition (TCF/LEF luciferase reporter; 10 uM by plate map, replicate 2) (beta-catenin [1]): 42.2% | DLD1 TCF c2 BrightGlo % Inhibition (TCF/LEF luciferase reporter; 10 uM by plate map, replicate 3) (beta-catenin [1]): 38.1% | DLD1 TCF c2 BrightGlo % Inhibition (TCF/LEF luciferase reporter; 20 uM by plate map, replicate 1) (beta-catenin [1]): 51.4% | DLD1 TCF c2 BrightGlo % Inhibition (TCF/LEF luciferase reporter; 20 uM by plate map, replicate 2) (beta-catenin [1]): 56.9% | DLD1 TCF c2 BrightGlo % Inhibition (TCF/LEF luciferase reporter; 20 uM by plate map, replicate 3) (beta-catenin [1]): 51.8%
B2: I-1080 (peptide)
peptide: Ac-[αAllylPro]D[tBuAla][B5(4)]DDAAFN[PyrS2″][Phe(2-Cl)][Bta][Leu(ol)]
modifications: staple 1-4, 4-11

DLD1 TCF c2 BrightGlo % Inhibition, 0.625 uM, replicate 1 (beta-catenin [2]): 11% | DLD1 TCF c2 BrightGlo % Inhibition, 0.625 uM, replicate 2 (beta-catenin [2]): 10.7% | DLD1 TCF c2 BrightGlo % Inhibition, 0.625 uM, replicate 3 (beta-catenin [2]): 15.5% | DLD1 TCF c2 BrightGlo % Inhibition, 1.25 uM, replicate 1 (beta-catenin [2]): 5.7% | DLD1 TCF c2 BrightGlo % Inhibition, 1.25 uM, replicate 2 (beta-catenin [2]): 22.3% | DLD1 TCF c2 BrightGlo % Inhibition, 1.25 uM, replicate 3 (beta-catenin [2]): 21.2% | DLD1 TCF c2 BrightGlo % Inhibition, 2.5 uM, replicate 1 (beta-catenin [2]): 13.3% | DLD1 TCF c2 BrightGlo % Inhibition, 2.5 uM, replicate 2 (beta-catenin [2]): 28.8% | DLD1 TCF c2 BrightGlo % Inhibition, 2.5 uM, replicate 3 (beta-catenin [2]): 33.4% | DLD1 TCF c2 BrightGlo % Inhibition, 5 uM, replicate 1 (beta-catenin [2]): 32% | DLD1 TCF c2 BrightGlo % Inhibition, 5 uM, replicate 2 (beta-catenin [2]): 57.8% | DLD1 TCF c2 BrightGlo % Inhibition, 5 uM, replicate 3 (beta-catenin [2]): 62% | DLD1 TCF c2 BrightGlo % Inhibition, 10 uM, replicate 1 (beta-catenin [2]): 61.5% | DLD1 TCF c2 BrightGlo % Inhibition, 10 uM, replicate 2 (beta-catenin [2]): 72% | DLD1 TCF c2 BrightGlo % Inhibition, 10 uM, replicate 3 (beta-catenin [2]): 76.2% | DLD1 TCF c2 BrightGlo % Inhibition, 20 uM, replicate 1 (beta-catenin [2]): 78.1% | DLD1 TCF c2 BrightGlo % Inhibition, 20 uM, replicate 2 (beta-catenin [2]): 81.3% | DLD1 TCF c2 BrightGlo % Inhibition, 20 uM, replicate 3 (beta-catenin [2]): 81.9%
B3: I-988 (peptide)
peptide: Ac-[αAllylPro]D[tBuAla][B5(3)]D[TfeGA]AAFF[PyrS2″]F[Bta]Q-NH2
modifications: staple 1-4, 4-11
